Source: US20130266579A1

Tests used:
[1] = molecular target: human epidermal growth factor receptor (EGFR) (human) (UniProt P00533); assay: cell-based or functional assay
[2] = molecular target: human epidermal growth factor receptor (EGFR) on cells and tissues (human) (UniProt P00533); assay: in vivo fluorescence imaging

fold increase of tumor DL755 signal over 7 days [2]	Substance	EC50 for Cell Growth Inhibition (CGI), Keratinocyte (HEK-N) cells [1]	EC50 for Cell Growth Inhibition (CGI), A431 cells [1]
	Saporin conjugated Y104D	15.8 ng/mL	
	Saporin conjugated Y104D/Q111P	22.5 ng/mL	2.4 ng/mL
3 fold	control Human IgG (antibody)		
